Measured values from patent US20160115500A1 (University of California, published 2016).
Changes are numbered by the printed parent chain. In names and notes the source's numbering stands. Values belong to the molecule of their own block, whether it stands above or below them.

Experiments:
[1] = biological target: GAL4 activation domain fusion (ACT) to HAB1 (UniProt Q9CAJ0); test: yeast two-hybrid, X-gal; lowest mandipropamid concentration giving signal
GST-HAB1 = biological target: T1, GST-HAB1 (UniProt Q9CAJ0 23-511); test: cell-based or functional assay
T1 sequence (looked up): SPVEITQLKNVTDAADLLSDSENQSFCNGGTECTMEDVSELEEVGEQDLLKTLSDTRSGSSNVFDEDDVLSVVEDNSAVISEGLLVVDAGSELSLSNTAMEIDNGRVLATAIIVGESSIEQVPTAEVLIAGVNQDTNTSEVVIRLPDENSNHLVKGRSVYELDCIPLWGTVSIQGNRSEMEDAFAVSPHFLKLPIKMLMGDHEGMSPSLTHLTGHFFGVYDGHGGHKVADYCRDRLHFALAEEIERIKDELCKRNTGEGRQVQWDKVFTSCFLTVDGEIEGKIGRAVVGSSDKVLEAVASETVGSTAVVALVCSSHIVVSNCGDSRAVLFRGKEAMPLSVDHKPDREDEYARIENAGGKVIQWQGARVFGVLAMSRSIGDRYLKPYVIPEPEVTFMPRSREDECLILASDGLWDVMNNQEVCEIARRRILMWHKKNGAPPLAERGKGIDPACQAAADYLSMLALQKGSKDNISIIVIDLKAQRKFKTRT

GST-ABI1 = biological target: T2, GST-ABI1 (UniProt P49597 1-434); test: cell-based or functional assay
T2 sequence (looked up): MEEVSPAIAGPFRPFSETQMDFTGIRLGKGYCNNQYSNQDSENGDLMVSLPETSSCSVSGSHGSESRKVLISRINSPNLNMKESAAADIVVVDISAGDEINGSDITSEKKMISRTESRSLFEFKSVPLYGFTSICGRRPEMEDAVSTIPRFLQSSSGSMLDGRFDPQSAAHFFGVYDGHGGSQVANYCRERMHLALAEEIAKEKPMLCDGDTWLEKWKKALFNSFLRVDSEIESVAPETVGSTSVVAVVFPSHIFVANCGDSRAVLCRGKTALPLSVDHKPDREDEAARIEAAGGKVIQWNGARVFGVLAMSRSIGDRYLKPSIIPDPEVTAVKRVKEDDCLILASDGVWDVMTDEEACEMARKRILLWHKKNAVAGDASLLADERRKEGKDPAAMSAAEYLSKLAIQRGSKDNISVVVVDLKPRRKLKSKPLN

GST-ABI2 = biological target: T3, GST-ABI2 (UniProt O04719 1-423); test: cell-based or functional assay
T3 sequence (looked up): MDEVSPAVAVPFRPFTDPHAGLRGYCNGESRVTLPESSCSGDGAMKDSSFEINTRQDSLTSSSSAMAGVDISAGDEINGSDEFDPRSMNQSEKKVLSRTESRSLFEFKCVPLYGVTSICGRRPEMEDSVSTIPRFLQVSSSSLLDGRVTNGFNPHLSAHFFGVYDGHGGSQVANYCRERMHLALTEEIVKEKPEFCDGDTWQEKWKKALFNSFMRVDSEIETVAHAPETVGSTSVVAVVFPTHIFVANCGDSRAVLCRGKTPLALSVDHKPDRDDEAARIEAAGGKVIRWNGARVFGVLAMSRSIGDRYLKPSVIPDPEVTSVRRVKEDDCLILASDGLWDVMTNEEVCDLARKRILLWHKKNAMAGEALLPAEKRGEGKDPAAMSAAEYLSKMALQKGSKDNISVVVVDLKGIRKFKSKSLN

[2] = biological target: T4, GAL4 activation domain fusion (ACT) to HAB1 (UniProt Q9CAJ0 23-511, limits assumed); test: yeast two-hybrid, X-gal; lowest benoxacor concentration giving signal
T4 construct: pACT-HAB1 fusion in yeast reporter strains; also called pACT-HAB1
T4 sequence (looked up): T1 sequence (looked up)
Experimental: The set of 475 mutant plasmids were individually transformed into the Y190 yeast two hybrid reporter strain co-transformed with pACT-HAB1, as previously described (Park et al., 2009). The yeast strains generated were arrayed into 96-well plates yielding what we refer to as the “pocket library”. The pocket library strains were spotted onto agar plates containing selective synthetic dextrose (minus Leu & Trp) medium that was supplemented with a single test compound at 100 μM. The pocket library strains were separately tested for responsiveness to the following compounds: dichlobenil, benzothiadiazole, mandipropamid, fludioxonil, and benoxacor. After incubating test plates at 30° C. for two days, colonies were chloroform lysed and stained to reveal β-galactosidase expression levels, using previously described methods (Park et al., 2009). Mutants displaying responsiveness to the test compound, if present, were identified by virtue of X-gal staining and then subjected to subsequent optimization efforts. Using this approach we identified mutations that conferred detectable sensitivity to the compounds tested (see entries labeled “Pocket Library Screens” in Table 1).

[3] = biological target: T4, GAL4 activation domain fusion (ACT) to …; test: yeast two-hybrid, X-gal; lowest dichlobenil concentration giving signal
[4] = biological target: T4, GAL4 activation domain fusion (ACT) to …; test: yeast two-hybrid, X-gal; lowest fludioxonil concentration giving signal
[5] = biological target: T4, GAL4 activation domain fusion (ACT) to …; test: yeast two-hybrid, X-gal; lowest mandipropamid concentration giving signal
[6] = biological target: T4, GAL4 activation domain fusion (ACT) to …; test: yeast two-hybrid, X-gal; lowest benzothiadiazole concentration giving signal
[7] = biological target: T5, 6×-His tagged PYR1^K59R,F108A,S122G
T5 chain: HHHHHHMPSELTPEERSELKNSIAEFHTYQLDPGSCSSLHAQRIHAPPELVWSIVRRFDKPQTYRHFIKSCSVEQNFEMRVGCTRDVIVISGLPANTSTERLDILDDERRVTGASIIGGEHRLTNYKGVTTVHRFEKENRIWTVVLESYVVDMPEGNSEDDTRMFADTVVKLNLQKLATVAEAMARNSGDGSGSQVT

6×-His-PYR1^MANDI = biological target: T6, 6×-His-PYR1^MANDI
T6 chain: T5 chain with Y64H, V87I, F165L

- Threshold [1]: 0.01 µM
Molecule: PYR1^Y58H,K59R,V81I,F108A,F159L (from UniProt P04386 1-147) (receptor)

- IC50 of mandipropamid mediated inhibition of PP2C activity (4-methylumbelliferyl-phosphate substrate) (GST-HAB1): 32.2 nM
- IC50 of mandipropamid mediated inhibition of PP2C activity (4-methylumbelliferyl-phosphate substrate) (GST-ABI1): 26.8 nM
- IC50 of mandipropamid mediated inhibition of PP2C activity (4-methylumbelliferyl-phosphate substrate) (GST-ABI2): 75.5 nM
B1: 6×-His-PYR1^MANDI (receptor)
chain: T5 chain with Y64H, V87I, F165L

- Threshold [2]: 100 µM
- Threshold [3]: 100 µM
- Threshold [4]: 100 µM
- Threshold [5]: 100 µM
- Threshold [6]: 100 µM
B2: PYR1^K59R,F159V (receptor, not shown: small tags and cut ends)
chain: MPSELTPEERSELKNSIAEFHTYQLDPGSCSSLHAQRIHAPPELVWSIVRRFDKPQTYRHFIKSCSVEQNFEMRVGCTRDVIVISGLPANTSTERLDILDDERRVTGFSIIGGEHRLTNYKSVTTVHRFEKENRIWTVVLESYVVDMPEGNSEDDTRMVADTVVKLNLQKLATVAEAMARNSGDGSGSQVT
notes: pBD-PYR1 fusion in yeast

- Threshold [2]: 50 µM
- Threshold [3]: 100 µM
- Threshold [4]: 100 µM
- Threshold [6]: 100 µM
B3: PYR1^K59R,T162W (receptor, not shown: small tags and cut ends)
chain: B2 chain with V159F, T162W
notes: pBD-PYR1 fusion in yeast

Continued, molecule first:

B4: GST-HAB1 (protein)
chain: T1 sequence (looked up)
- PP2C activity (pNPP substrate), 600 nM PP2C and 1200 nM receptor [7]: saturable inhibition of HAB1 and ABI2 PP2C activity by mandipropamid in the presence of PYR1^MANDI (FIG. 1A, bottom lines) and PYR1^K59R,F108A,S122G
- PP2C activity (pNPP substrate), 600 nM PP2C and 1200 nM receptor (6×-His-PYR1^MANDI): saturable inhibition of HAB1 and ABI2 PP2C activity by mandipropamid in the presence of PYR1^MANDI

B5: GST-ABI2 (protein)
chain: T3 sequence (looked up)
- PP2C activity (pNPP substrate), 600 nM PP2C and 1200 nM receptor [7]: saturable inhibition of HAB1 and ABI2 PP2C activity by mandipropamid in the presence of PYR1^MANDI (FIG. 1A, bottom lines) and PYR1^K59R,F108A,S122G
- PP2C activity (pNPP substrate), 600 nM PP2C and 1200 nM receptor (6×-His-PYR1^MANDI): saturable inhibition of HAB1 and ABI2 PP2C activity by mandipropamid in the presence of PYR1^MANDI
